Our source for the stoichiometry N values is publication PMC6750980.

This assay concerns the target Hepatitis C virus p7 protein from genotype 5a (EUH1480 strain) (Hepatitis C virus genotype 5a (EUH1480 strain)). As to the kind of experiment: SEC. Background: In gel filtration, larger molecules generally elute earlier.

In turn, “Hepatitis C virus p7 protein from genotype 5a (EUH1480 strain) (natural protein)” had a stoichiometry N of 6.

As a reminder, the stoichiometry N is the number of molecules, sites or subunits per partner or assembly.
